Drawing on publication PMC9568556, this text covers stoichiometry N for one substance.

In the test the target is Bacillus pseudofirmus Mrp antiporter complex (hetero-heptamer MrpA-MrpG, one protomer) (Bacillus pseudofirmus) (UniProt Q9RGZ5). Description: cryo-EM structure; purified Mrp dimer fractions in 20 mM Tris-HCl pH 8.0, 150 mM NaCl, 0.05% LMNG, 1-2 mg/ml; dimer map 2.96 Å, symmetry-expanded protomer map 2.2 Å.

For “Bacillus pseudofirmus Mrp antiporter complex (hetero-heptamer MrpA-MrpG, one protomer) (from UniProt Q9RGZ5 1-805; Q9RGZ4 1-144; Q9RGZ3 1-112; Q9RGZ2 1-493; Q9RGZ1 1-158; Q9RGZ0 1-91; Q9RGY9 1-119)”, the stoichiometry N was found to be 2.

As usually defined, the stoichiometry N is a count of units in the complex or per binding partner.
